Data on one molecule can be found in US20160289338A1 (OXFORD BIOTHERAPEUTICS, published 2016).

Assay [1] concerns the target T1, human Matriptase (cell-surface) (human, UniProt Q9Y5Y6 1-855).
T1 sequence: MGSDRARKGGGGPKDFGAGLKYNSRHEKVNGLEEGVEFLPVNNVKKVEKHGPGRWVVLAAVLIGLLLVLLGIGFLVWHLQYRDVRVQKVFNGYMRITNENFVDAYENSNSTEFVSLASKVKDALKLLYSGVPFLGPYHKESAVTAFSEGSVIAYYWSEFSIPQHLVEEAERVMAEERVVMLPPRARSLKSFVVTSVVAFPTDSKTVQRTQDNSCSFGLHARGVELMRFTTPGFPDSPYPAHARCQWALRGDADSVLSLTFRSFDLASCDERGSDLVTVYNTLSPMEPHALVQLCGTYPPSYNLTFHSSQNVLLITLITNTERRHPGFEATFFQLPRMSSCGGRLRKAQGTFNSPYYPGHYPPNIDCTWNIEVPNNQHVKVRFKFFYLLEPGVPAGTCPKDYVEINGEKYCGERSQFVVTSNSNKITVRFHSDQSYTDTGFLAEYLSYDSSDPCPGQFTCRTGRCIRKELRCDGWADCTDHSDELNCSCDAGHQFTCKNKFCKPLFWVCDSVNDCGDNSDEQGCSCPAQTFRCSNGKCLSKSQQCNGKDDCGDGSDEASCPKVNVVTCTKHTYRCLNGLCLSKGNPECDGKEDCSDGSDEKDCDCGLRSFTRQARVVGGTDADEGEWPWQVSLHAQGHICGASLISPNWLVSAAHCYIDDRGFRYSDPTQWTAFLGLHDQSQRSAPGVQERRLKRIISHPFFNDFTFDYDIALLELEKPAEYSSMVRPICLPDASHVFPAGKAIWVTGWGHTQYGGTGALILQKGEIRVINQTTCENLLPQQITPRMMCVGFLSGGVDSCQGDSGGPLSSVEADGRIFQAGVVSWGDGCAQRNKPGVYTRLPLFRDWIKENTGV
In words: cell-based or functional assay.

Assay [2] concerns the target T1, human Matriptase (cell-surface). The assay is described as follows: flow cytometry on HT-29 cells, GMFI Facsarray; the legend box prints no unit, nmol/L is the unit of the concentration axis.
The target is the same in assay [3]. The assay is described as follows: flow cytometry on H69 cells, GMFI Facsarray; the legend box prints no unit, nmol/L is the unit of the concentration axis.
For assay [4] the target is unchanged. The assay is described as follows: flow cytometry on SNU-1 cells, PE GMFI. The method, then:
The specificity of antibodies against the Matriptase selected in Example 1 was tested by flow cytometry. To test the ability of the antibodies to bind to the cell surface Matriptase protein, the antibodies were incubated with the Matriptase-expressing cells. Cells were washed in FACS buffer (DPBS, 2% FBS), centrifuged and resuspended in 100 μl of the diluted primary Matriptase antibody (also diluted in FACS buffer). The antibody-cell line complex was incubated on ice for 60 min and then washed twice with FACS buffer as described above. The cell-antibody pellet was resuspended in 100 μl of the diluted secondary antibody (also diluted in FACS buffer) and incubated on ice for 60 min on ice. The pellet was washed as before and resuspended in 200 μl FACS buffer. The samples were loaded onto the BD FACScanto II flow sytometer and the data analyzed using the BD FACSdiva software.

B1: Matriptase_A1 (antibody, V domains shown)
VH: EVQLLESGGGLVQPGGSLRLSCAASGFTFRNYDMSWVRQAPGKGLEWVSSISYSGGSTYYADSVKGRFTISRDNSKNTLSLQMNSLRAEDTAVYYCAKRGATPFDYWGQGSLVTVSS
VL: not shown
notes: Fully human monoclonal IgG from a hybridoma of an HCo12 HuMAb Mouse; supernatants were screened for human gamma, kappa antibodies; a human IgG1 isotype control was used in the ADCC assay
As for B1, in assay [1], the “EC50, MabZAP internalization assay, H69 cells” value worked out at 0.074 nM and the “EC50, MabZAP internalization assay, HT-29 cells” value was 0.183 nM. The molecule also had an EC50 in assay [2] of 0.222 nM. Moreover, in assay [3], the EC50 amounted to 3.45 nM. In addition, the half-maximal effective concentration (EC50 (read off the curve)) in assay [4] is ~0.5 nM.
